Results as given in publication doi:10.1101/2021.10.17.464694 (bioRxiv, 2021).

Target: K63-linked diubiquitin (UniProt P0CG48 1-76; P0CG48 1-76, K48R | K63R | D77 extension)
Assay: ITC

stoichiometry N: 1 ASCC2 per K63Ub2
B1: full-length ASCC2 (natural protein)
chain: MPALPLDQLQITHKDPKTGKLRTSPALHPEQKADRYFVLYKPPPKDNIPALVEEYLERATFVANDLDWLLALPHDKFWCQVIFDETLQKCLDSYLRYVPRKFDEGVASAPEVVDMQKRLHRSVFLTFLRMSTHKESKDHFISPSAFGEILYNNFLFDIPKILDLCVLFGKGNSPLLQKMIGNIFTQQPSYYSDLDETLPTILQVFSNILQHCGLQGDGANTTPQKLEERGRLTPSDMPLLELKDIVLYLCDTCTTLWAFLDIFPLACQTFQKHDFCYRLASFYEAAIPEMESAIKKRRLEDSKLLGDLWQRLSHSRKKLMEIFHIILNQICLLPILESSCDNIQGFIEEFLQIFSSLLQEKRFLRDYDALFPVAEDISLLQQASSVLDETRTAYILQAVESAWEGVDRRKATDAKDPSVIEEPNGEPNGVTVTAEAVSQASSHPENSEEEECMGAAAAVGPAMCGVELDSLISQVKDLLPDLGEGFILACLEYYHYDPEQVINNILEERLAPTLSQLDRNLDREMKPDPTPLLTSRHNVFQNDEFDVFSRDSVDLSRVHKGKSTRKEENTRSLLNDKRAVAAQRQRYEQYSVVVEEVPLQPGESLPYHSVYYEDEYDDTYDGNQVGANDADSDDELISRRPFTIPQVLRTKVPREGQEEDDDDEEDDADEEAPKPDHFVQDPAVLREKAEARRMAFLAKKGYRHDSSTAVAGSPRGHGQSRETTQERRKKEANKATRANHNRRTMADRKRSKGMIPS
